Among the data in publication PMC6098157 are GFP-PCNA left values, retold here.

A value given as a limit tells only on which side of the number the result lay.

This experiment deals with TIR1 (transport inhibitor response 1), codon-optimized rice TIR1 (rice).

B1: mAID^K→R-vhhGFP4^K→R (lysine-less mAID-nanobody) (VHH)
chain: ACPRDPARPPARAQVVGWPPVRSYRRNVMVSCQRSSGGPEAAAFVRVSMDGAPYLRRIDLRMYRMDQVQLVESGGALVQPGGSLRLSCAASGFPVNRYSMRWYRQAPGREREWVAGMSSAGDRSSYEDSVRGRFTISRDDARNTVYLQMNSLRPEDTAVYYCNVNVGFEYWGQGTQVTVSS
On to B1, for which the GFP-PCNA left at 22 hpf in zebrafish retinal neuroepithelium cells expressing TIR1 and mAID-nanobody, with 0.5 mM IAA as the bridging auxin (% of original GFP-PCNA levels) was under 20; the GFP-PCNA left at 22 hpf in zebrafish retinal neuroepithelium cells expressing TIR1 and mAID-nanobody, with 0.5 mM NAA as the bridging auxin (% of original GFP-PCNA levels) was 12.
